Laboratory results reported in publication PMC10104900 (The Journal of Clinical Investigation, 2023).

B1: S451-1140 (antibody, V domains shown)
VH: EVQLVESGGGLVPPGGSLRLSCAASGFIFSNYAMTWVRQAPGKGLEWVSAISGGGGSTDYADSVKGRFTISRDNSKNTLYLQMNSLRAEDTAVYYCAKDLFGSGWSLFDNWGQGTLVTVS
VL: not shown
B2: S626-161 (antibody, V domains shown)
VH: QLQLQESGPGLVKPSEALSLTCTVSGGSISTSNYYWGWIRQPPGKGLEWIGSIYYRGGTHYNPSLKTRVTISVDTSKNQFSLKLSSVTAADTAVYYCARHTYFYDIVGAAVWEPFDIWGQGTMVTVSS
VL: not shown
B3: S728-1157 IgG (antibody, V domains shown)
VH: EVQLVESGGGLVQPGGSLRLSCAASGLLVSRNYMNWVRQAPGKGLEWVSIIYSGGSTFYADSVEGRFTISRDESKNTLYLQMNSLRTDDTAVYYCARDLSDYGGIDCWGQGTLVTVSS
VL: YELTQPLSVSMALGQTARISCGGDNVGSQNVHWYQQRPGQAPVLVIYRDSNRPSGIPERFSGSKSGNTATLTISRAQAGDEADYYCQVWDSSTVAFGGGTKLTVL
notes: copies: 2 + 2
B4: S728-1157 Fab (Fab, V domains shown)
VH: B3 VH
VL: B3 VL

What was measured:
[1] = biological target: recombinant FL spike B.1.1.7 Alpha, stabilized by 2P mutations (SARS-CoV-2 B.1.1.7 Alpha, strain)
[2] = biological target: recombinant FL spike P.1 Gamma, stabilized by 2P mutations (SARS-CoV-2, P.1 Gamma, strain)
[3] = biological target: recombinant FL spike B.1.617.2 Delta, stabilized by 2P mutations (SARS-CoV-2, B.1.617.2 Delta, strain)
[4] = biological target: recombinant FL spike B.1.351 Beta, stabilized by 2P mutations (SARS-CoV-2, B.1.351 Beta, strain)
[5] = biological target: T1, recombinant FL spike WT-6P (SARS-CoV-2 WT (Wuhan-Hu-1), UniProt P0DTC2, stabilised, biotin (EZ-Link Sulfo-NHS-Biotin) in the BLI experiments); assay: ELISA; conditions: both partners purified
[6] = biological target: T1, recombinant FL spike WT-6P; assay: BLI; conditions: both partners purified

| Binder | binding result [1] | binding result [2] | binding result [3] | binding result [4] | binding result [5] | binding result [6] |
| --- | --- | --- | --- | --- | --- | --- |
| B1 | binds | binds | binds | binds |  |  |
| B2 | binds | binds | binds | binds |  |  |
| B3 |  |  |  |  | binds |  |
| B4 |  |  |  |  |  | binds |
